Series [1] has as its target T1, mSCD1 (Mus musculus, UniProt P13516).
T1 construct: 6xHis (from pYES-DEST52) (C); made in house; host or cells: mSCD1: Saccharomyces cerevisiae (OLE1-deficient strain L8-14C), used as microsomes; cyt b5 and cyt b5 reductase: Escherichia coli
T1 sequence (P13516 1-355): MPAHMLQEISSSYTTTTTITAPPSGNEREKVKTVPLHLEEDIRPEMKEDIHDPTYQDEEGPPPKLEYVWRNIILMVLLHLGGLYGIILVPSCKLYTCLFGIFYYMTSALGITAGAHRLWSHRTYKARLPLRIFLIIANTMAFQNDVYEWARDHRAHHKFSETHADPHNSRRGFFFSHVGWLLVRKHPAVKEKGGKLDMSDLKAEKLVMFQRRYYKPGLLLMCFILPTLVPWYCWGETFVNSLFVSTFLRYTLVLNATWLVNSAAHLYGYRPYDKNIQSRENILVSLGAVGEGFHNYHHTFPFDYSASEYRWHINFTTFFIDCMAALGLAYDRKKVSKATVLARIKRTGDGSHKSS
As to the kind of experiment: Conversion of [14C]-18:0-CoA to [14C]-18:1-CoA by reconstituted complexes of recombinant mSCD1 with cyt b5 and cyt b5 reductase. The series is classed as biochemical.

In series [2] the test system is OLE1 deficient yeast strain L8-14C. The series is classed as cell-based, Saccharomyces cerevisiae. Conditions: galactose minimal medium without unsaturated fatty acids, plus grades not defined.
For series [3], the system named is transgenic L8-14C. The series can be described thus: Fatty acid profile of transgenic L8-14C expressing human SCD constructs. Type of series: cell-based, Saccharomyces cerevisiae. The conditions noted are these: for 16:0 / 16:1 / 18:0 / 18:1: percentage of total C16 and C18 fatty acids detected.

“And” between values parts separate entries of the source, which are not always exact repeats. Identical values can stand only once.

B1: mSCD1 only: recombinant mSCD1 prepared as yeast microsomes, no exogenous cyt b5 or reductase (protein, UniProt P13516 1-355, looked up)
Acyl-CoA desaturase 1: T1 sequence (P13516 1-355)
modifications: yeast microsomes
notes: recombinant mSCD1 prepared as yeast microsomes, no exogenous cyt b5 or reductase
B1: in series [1] (18:0-CoA to 18:1-CoA, single trial of duplicate), the “% conversion” value is 5.40% and 5.55%. Also, in series [1] (average conversion minus background), the “Correction by subtraction of background” value is listed as 3.47%. Further, the average conversion in series [1] (mean of duplicate trials) came to 5.48%. Also, in series [1] (single trial of duplicate), the “cpm 18:1-CoA” value was 1626 cpm and 1743 cpm; the total cpm was 30,094 cpm and 31,416 cpm. The “cpm 18:0-CoA” value in series [1] (single trial of duplicate, mSCD1 yeast microsomes, cyt b5 and cyt b5 reductase from E. coli) was 28,468 cpm and 29,673 cpm.

B2: mSCD4: mouse stearoyl-CoA desaturase isoform 4, cloned from heart, expressed in yeast (protein, UniProt Q6T707 1-353, looked up)
Stearoyl-CoA desaturase 4: MTAHLPQEISSRCSTTNIMEPHSRRQQDGEEKMPLQAEDIRPEIKDDLYDPSYQDEEGPPPKLEYVWRNIIFMALLHVGALYGITLVPSCKVYTWLLGVFYNVVAGLGITAGAHRLWSHRTYKARLPLRIFLIMANTMAFQNDVYEWARDHRAHHKFSETHADPHNSRRGFFFSHVGWLLVRKHPAVKEKGKNLDMSDLKAEKLVMFQRRYYKLAVTLMFIILPTLVPWYLWGETFQHSLCVSNFLRYAVLLNFTWLVNSAAHLYGYRPYDRGIGARENPFVSMASLGEGFHNYHHTFPYDYSVSEYRWHINFTTFFIDCMAALGLAYDRKKVSKAVVLARIKRTGDGSHKSS
For the molecule B2, the In vivo activity entry in series [2] is reported as “Not active”.

B3: hSCD5-wt: human SCD5 wild-type construct expressed in yeast L8-14C (protein, UniProt Q86SK9 1-330, looked up)
Stearoyl-CoA desaturase 5: MPGPATDAGKIPFCDAKEEIRAGLESSEGGGGPERPGARGQRQNIVWRNVVLMSLLHLGAVYSLVLIPKAKPLTLLWAYFCFLLAALGVTAGAHRLWSHRSYRAKLPLRIFLAVANSMAFQNDIFEWSRDHRAHHKYSETDADPHNARRGFFFSHIGWLFVRKHRDVIEKGRKLDVTDLLADPVVRIQRKYYKISVVLMCFVVPTLVPWYIWGESLWNSYFLASILRYTISLNISWLVNSAAHMYGNRPYDKHISPRQNPLVALGAIGEGFHNYHHTFPFDYSASEFGLNFNPTTWFIDFMCWLGLATDRKRATKPMIEARKARTGDSSA
For B3, in series [3], the “Ratio 18:1/16:1” value stood at 3.39, the “16:0” value is 45.032 percentage, the “16:1” value is reported as 8.90 percentage and the “18:0” value amounted to 7.73 percentage. Moreover, in series [3], the “18:1” value worked out at 30.20 percentage.

B4: hSCD5-6xH: human SCD5 construct with 6xHis tag expressed in yeast L8-14C (protein, UniProt Q86SK9 1-330, looked up)
Stearoyl-CoA desaturase 5: B3 Stearoyl-CoA desaturase 5
modifications: C-terminal 6xHis tag
notes: human SCD5 construct with 6xHis tag expressed in yeast L8-14C
For B4, in series [3], the “Ratio 18:1/16:1” value was 3.73, the “16:0” value was found to be 56.64 percentage, the “16:1” value was found to be 6.70 percentage and the “18:0” value came to 10.79 percentage. In series [3], the “18:1” value turned out to be 25.70 percentage.

B5: hSCD1-wt: human SCD1 wild-type construct expressed in yeast L8-14C (protein, UniProt O00767 1-359, looked up)
Stearoyl-CoA desaturase: MPAHLLQDDISSSYTTTTTITAPPSRVLQNGGDKLETMPLYLEDDIRPDIKDDIYDPTYKDKEGPSPKVEYVWRNIILMSLLHLGALYGITLIPTCKFYTWLWGVFYYFVSALGITAGAHRLWSHRSYKARLPLRLFLIIANTMAFQNDVYEWARDHRAHHKFSETHADPHNSRRGFFFSHVGWLLVRKHPAVKEKGSTLDLSDLEAEKLVMFQRRYYKPGLLMMCFILPTLVPWYFWGETFQNSVFVATFLRYAVVLNATWLVNSAAHLFGYRPYDKNISPRENILVSLGAVGEGFHNYHHSFPYDYSASEYRWHINFTTFFIDCMAALGLAYDRKKVSKAAILARIKRTGDGNYKSG
B5: in series [3], the “Ratio 18:1/16:1” value was determined as 0.63, the “16:0” value came to 61.87 percentage, the “16:1” value was 23.22 percentage and the “18:0” value came to 9.40 percentage. Besides, the “18:1” value in series [3] was determined as 14.65 percentage.
